Measurements taken from paper PMC9121654 (Biochemical and Biophysical Research Communications, 2022).

Biological target: the molecule itself
Experiment: SEC

B1: GYINVG-ZYG11B485-728 fusion protein (other)
chain: GYINVGAQLGTELFIVRQLLQIVKQKTNQNSVDTTLKFTLSALWNLTDESPTTCRHFIENQGLELFMRVLESFPTESSIQQKVLGLLNNIAEVQELHSELMWKDFIDHISSLLHSVEVEVSYFAAGIIAHLISRGEQAWTLSRSQRNSLLDDLHSAILKWPTPECEMVAYRSFNPFFPLLGCFTTPGVQLWAVWAMQHVCSKNPSRYCSMLIEEGGLQHLYNIKDHEHTDPHVQQIAVAILDSLEKHIVR
  stoichiometry N: 2
